{
  "source": "paper PMC5227068",
  "about": "“Pathogenicity Determinants of the Human Malaria Parasite Plasmodium falciparum Have Ancient Origins” (mSphere, 2017)",
  "binders": {"B1": {"name": "P. reichenowi CDO62090.1 CIDRα1.4 (domain or fragment)", "chain": "TKINVLYSGDKQGDITQKLQNFCSDENKENGTNYQKWECYYKDEKQNKCKMDKTSGKNMTEDKIMSFDEFFYSWVTNFLIDTINWENELKNCMNNTILTDCNDGCKINCVCFDKWVKQKENEWENVKKVFENKNGISDNYYNKLKYIFEGFFFQVLYKLNQDEAKWNQLKQKLKEIIVSSKANTGKEHSQDAIKPLLEYIKEKSTICKDNNTN"}, "B2": {"name": "P. reichenowi CDO61774.1 CIDRα1.4 (domain or fragment)", "chain": "TEIKVIVSGNEQGDISKKLEDFCSDENNENGKNYQKWECYYKSSQNNKCKMETKSGTSITEEKVTSFDAFFDLWVKNLLRDSIKWETELKDCINNSNVTDCNNDCNKNCVCFDKWVKQKEEVWKNMKTVLGNQKENLDNYYNKLNGLFKGFFFPVMFELNHDEAKWNKLMENLKKKIESSKENRGTVNSQDAIELLLEYLKEKSTICKDNNTN"}, "B3": {"name": "recombinant human EPCR (receptor)", "chain": "SQDASDGLQRLHMLQISYFRDPYHVWYQGNASLGGHLTHVLEGPDTNTTIIQLQPLQEPESWARTQSGLQSYLLQFHGLVRLVHQERTLAFPLTIRCFLGCELPPEGSRAHVFFEVAVNGSSFVSFRPERALWQADTQVTSGVVTFTLQQLNAYNRTRYELREFLEDTCVQYVQKHISAENTKGSQTSRSYTS"}, "B4": {"name": "recombinant human EPCR (receptor)", "chain": "B3 chain", "modifications": "construct limits not given; taken as the soluble extracellular domain after the signal peptide, from the candidate's features"}},
  "settings_in_all_cases": "both partners purified",
  "key": {"[1]": {"molecular_target": "T1, recombinant human endothelial protein C receptor (human, UniProt Q9UNN8 18-238)", "T1 construct": "endothelial protein C receptor, human, recombinant; also called EPCR; human EPCR", "T1 sequence (looked up)": "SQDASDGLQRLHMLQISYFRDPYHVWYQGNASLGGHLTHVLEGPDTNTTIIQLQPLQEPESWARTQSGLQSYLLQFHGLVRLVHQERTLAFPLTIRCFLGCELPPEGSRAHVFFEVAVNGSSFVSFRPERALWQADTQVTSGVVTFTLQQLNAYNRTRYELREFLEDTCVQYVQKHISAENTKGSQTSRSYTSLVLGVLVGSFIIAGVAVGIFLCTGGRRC", "experiment": "BLI; Octet Qke; EPCR on the biosensor, CIDR domain in solution; protocol as reported previously (ref. 40); double-reference subtracted data fitted to a 1:1 binding model"}, "[2]": {"molecular_target": "P. reichenowi var71 CIDRα1.4 (Plasmodium reichenowi)", "experiment": "BLI; Octet Qke; CIDR domains on recombinant human EPCR, protocol as reported previously (ref. 40); 1:1 fit"}, "[3]": {"molecular_target": "T2, P. reichenowi CDO62090.1 CIDRα1.4 (Plasmodium reichenowi, UniProt A0A060RMQ3 1-4072)", "T2 construct": "CIDRα1.4 domain of the P. reichenowi erythrocyte membrane protein 1 (PrEMP1) of entry CDO62090.1; Construct His6-MBP-TEV-CIDR-StrepII; also called Pr CDO62090.1 CIDRα1.4; source: pSHuffle expression hosts (New England Biolabs), purified (two-step process); not shown: StrepII, C-terminal, kept", "experiment": "BLI; Octet Qke; CIDR domains on recombinant human EPCR, protocol as reported previously (ref. 40); 1:1 fit"}, "[4]": {"molecular_target": "T3, P. reichenowi CDO61774.1 CIDRα1.4 (Plasmodium reichenowi, UniProt A0A060RM78 1-3575)", "T3 construct": "CIDRα1.4 domain of the P. reichenowi erythrocyte membrane protein 1 (PrEMP1) of entry CDO61774.1; Construct His6-MBP-TEV-CIDR-StrepII; also called P. reichenowi CD061774.1 CIDRα1.4; Pr CDO61774.1 CIDRα1.4; source: pSHuffle expression hosts (New England Biolabs), purified (two-step process); not shown: StrepII, C-terminal, kept", "experiment": "BLI; Octet Qke; CIDR domains on recombinant human EPCR, protocol as reported previously (ref. 40); 1:1 fit"}},
  "data": [
    {"binder": "B1", "values": [
      {"measurement": "koff", "setting": "[1]", "value": 0.000443, "unit": "s⁻¹"},
      {"measurement": "kon", "setting": "[1]", "value": 7350, "unit": "M⁻¹ s⁻¹"}
    ]},
    {"binder": "B2", "values": [
      {"measurement": "Kd", "setting": "[1]", "value": 6.2, "unit": "nM"},
      {"measurement": "koff", "setting": "[1]", "value": 0.000293, "unit": "s⁻¹"},
      {"measurement": "kon", "setting": "[1]", "value": 47300, "unit": "M⁻¹ s⁻¹"}
    ]},
    {"binder": "B3", "values": [
      {"measurement": "Kd", "setting": "[2]", "value": 23, "unit": "nM"}
    ]},
    {"binder": "B4", "values": [
      {"measurement": "Kd", "setting": "[3]", "value": 60, "unit": "nM"},
      {"measurement": "Kd", "setting": "[4]", "value": 6, "unit": "nM"}
    ]}
  ]
}
